From patent US7803382B2, “Method for inducing immune response to NY-CO-58” (Ludwig Institute for Cancer Research Ltd., priority 2001, dated 2010)

Tested on: sera from colon cancer patients
Experiment: Spot assay: reactivity of serologically defined colon cancer antigens with colon cancer patient sera
Type: binding, human
Conditions: reactive sera/sera tested; includes autologous where applicable; sera 1:200
Experimental: Serum samples from patients with colon cancer were screened using a modification of the plaque assay, termed a spot assay. In this method, 80×120 mm nitrocellulose membranes were precoated with a film of NZY/0.7% Agarose/2.5 mM IPTG and placed on a reservoir layer of NZY/0.7% Agarose in a 86×128 mm Omni Tray (Nalge Nunc International Corp., Naperville, Ill.). Approximately 1.0×10^5 pfU of monoclonal phage encoding individual serologically defined colon cancer antigens, in a volume of 20 μl, were mixed with 20 μl of exponentially growing E. coli XL-1 Blue MRF and spotted (0.7-μl aliquots) on the precoated nitrocellulose membranes. Membranes were incubated for 15 hours at 37° C. A total of 75 different serologically defined colon cancer antigens were spotted in duplicate per nitrocellulose membrane. The agarose film was then removed from the membrane and the filters were processed for reactivity with individual serum samples (1:200 dilution), as described in Scanlan, et al., Int. J. Cancer 76:652-658 (1998) and Scanlan, et al., Int. J. Cancer 83:456-64, (1999).

Row | Molecule | Reactivity of individual antigens
1 | CO-41 (MBD2): serologically defined colon cancer antigen, protein SEQ ID NO:23 (protein, listed as Homo sapiens) PSKLQKNKQRLRNDPLNQNKGKPDLNTTLPIRQTASIFKQPVTKVTNHPSNKVKSDPQRMNEQPRQLFWEKRLQGLSASDVTEQIIKTMELPKGLQGVGPGSNDETLLSAVASALHTSSAPITGQVSAAVEKNPAVWLNTSQPLCKAFIVTDEDIRKQEERVQQVRKKLEEALMADILSRAADTEEMDIEMDSGDEA | 3/76
2 | CO-61 (HIP1R): serologically defined colon cancer antigen, protein SEQ ID NO:19 (protein, listed as Homo sapiens) MFDYMDCELKLSESVFRQLNTAIAVSQMSSGQCRLAPLIQVIQDCSHLYHYTVKLLFKLHSCLPADTLQGHRDRFHEQFHSLRNFFRRASDMLYFKRLIQIPRLPEGPPNFLRASALAEHIKPVVVIPEEAPEDEEPENLIEISTGPPAGEPVVVADLFDQTFGPPNGSVKDDRDLQIESLKREVEMLRSELEKIKLEAQRYIAQLKSQVNALEGELEEQRKQKQKALVDNEQLRHELAQLRAAQLEGERSQGLREEAERKASATEARYNKLKEKHSELVHVHAELLRKNADTAKQLTVTQQSQEEVARVKEQLAFQVEQVKRESELKLEEKSDQLEKLKRELEAKAGELARAQEALSHTEQSKSELSSRLDTLSAEKDALSGAVRQREADLLAAQSLVRETEAALSREQQRSSQEQGELQGRLAERESQEQGLRQRLLDEQFAVLRGAAAEAAGILQDAVSKLDDPLHLRCTSSPDYLVSRAQEALDAVSTLEEGHAQYLTSLADASALVAALTRFSHLAADTIINGGATSHLAPTDPADRLIDTCRECGARALELMGQLQDQQALRHMQASLVRTPLQGILQLGQELKPKSLDVRQEELGAVVDKEMAATSAAIEDAVRRIEDMMNQARHASSGVKLEVNERILNSCTDLMKAIRLLVTTSTSLQKEIVESGRGAATQQEFYAKNSRWTEGLISASKAVGWGATQLVEAADKVVLHTGKYEELIVCSHEIAASTAQLVAASKVKANKHSPHLSRLQECSRTVNERAANVVASTKSGQEQIEDRDTMDFSGLSLIKLKKQEMETQVRVLELEKTLEAERMRLGELRKQHYVLAGASGSPGEEVAIRPSTAPRSVTTKKPPLAQKPSVAPRQDHQLDKKDGIYPAQLVNY | 5/75
3 | REN-32 (Lamin C): serologically defined colon cancer antigen, protein SEQ ID NO:25 (protein, listed as Homo sapiens) METPSQRRATRSGAQASSTPLSPTRITRLQEKEDLQELNDRLAVYIDRVRSLETENAGLRLRITESEEVVSREVSGIKAAYEAELGDARKTLDSVAKERARLQLELSKVREEFKELKARNTKKEGDLIAAQARLKDLEALLNSKEAALSTALSEKRTLEGELHDLRGQVAKLEAALGEAKKQLQDEMLRRVDAENRLQTMKEELDFQKNIYSEELRETKRRHETRLVEIDNGKQREFESRLADALQELRAQHEDQVEQYKKELEKTYSAKLDNARQSAERNSNLVGAAHEELQQSRIRIDSLSAQLSQLQKQLAAKEAKLRDLEDSLARERDTSRRLLAEKEREMAEMRARMQQQLDEYQELLDIKLALDMEIHAYRKLLEGEEERLRLSPSPTSQRSRGRASSHSSQTQGGGSVTKKRKLESTESRSSFSQHARTSGRVAVEEVDEEGKFVRLRNKSNEDQSMGNWQIKRQNGDDPLLTYRFPPKFTLKAGQVVTIWAAGAGATHSPPTDLVWKAQNTWGCGNSLRTALINSTGEEVAMRKLVR | 3/75
4 | CO-9 (HDAC 5): serologically defined colon cancer antigen, protein SEQ ID NO:18 (protein, listed as Homo sapiens) EFLLSKSKEPTPGGLNHSLPQHPKCWGAHHASLDQSSPPQSGPPGTPPSYKLPLPGPYDSRDDFPLRKTASEPNLKVRSRLKQKVAERRSSPLLRRKDGTVISTFKKRAVEITGAGPGASSVCNSAPGSGPSSPNSSHSTIAENGFTGSVPNIPTEMLPQHRALPLDSSPNQFSLYTSPSLPNISLGLQATVTVTNSHLTASPKLSTQQEAERQALQSLRQGGTLTGKFMSTSSIPGCLLGVALEGDGSPHGHASLLQHVLLLEQARQQSTLIAVPLHGQSPLVTGERVATSMRTVGKLPRHRPLSRTQSSPLPQSPQALQQLVMQQQHQQFLEKQKQQQLQLGKILTKTGELPRQPTTHPEETEEELTEQQEVLLGEGALTMPREGSTESESTQEDLEEEDEEEDGEEEEDCIQVKDEEGESGAEEGPDLEEPGAGYKKLFSDAQPLQPLQVYQAPLSLATVPHQALGRTQSSPAAPGGMKNPPDQPVKHLFTTSVVYDTFMLKHQCMCGNTHVHPEHAGRIQSIWSRLQETGLLSKCERIRGRKATLDEIQTVHSEYHTLLYGTSPLNRQKLDSKKLLGPISQKMYAVLPCGGIGVDSDTVWNEMHSSSAVRMAVGCLLELAFKVAAGELKNGFAIIRPPGHHAEESTAMGFCFFNSVAITAKLLQQKLNVGKVLIVDWDIHHGNGTQQAFYNDPSVLYISLHRYDNGNFFPGSGAPEEVGGGPGVGYNVNVAWTGGVDPPIGDVEYLTAFRTVVMPIAHEFSPDVVLVSAGFDAVEGHLSPLGGYSVTARCFGHLTRQLMTLAGGRVVLALEGGHDLTAICDASEACVSALLSVKLQPLDEAVLQQKPNINAVATLEKVIEIQSKHWSCVQKFAAGLGRSLRGAQAGETEEAEM | 3/76
5 | CO-42 (TRIP4): serologically defined colon cancer antigen, protein SEQ ID NO:22 (protein, listed as Homo sapiens) AEVKTPFDLAKAQENSNSVKKKTKFVNLYTRERQDRLAVLLPGRHPCDCLGQKHKLINNCLICGRIVCEQEGSGPCLFCGTLVCTHEEQDILQRDSNKSQKLLKKLMSGVENSGKVDISTKDLLPHQELRIKSGLEKAIKHKDKLLEFDRTSIRRTQVIDDESDYFASDSNQWLSKLERETLQKREEELRELRHASRLSKKVTIDFAGRKILEEENSLAEYHSRLDETIQAIANGTLNQPLTKLDRSSEEPLGVLVNPNMYQSPPQWLTTQVQPHRRRLSVLQDLD | 7/76
6 | SSX-2: serologically defined colon cancer antigen, protein SEQ ID NO:28 (protein, listed as Homo sapiens) MNGDDAFARRPTVGAQIPEKIQKAFDDIAKYFSKEEWEKMKASEKIFYVYMKRKYEAMTKLGFKATLPPFMCNKRAEDFQGNDLDNDPNRGNQVERPQMTFGRLQGISPKIMPKKPAEEGNDSEEVPEASGPQNDGKELCPPGKPTTSEKIHERSGPKRGEHAWTHRLRERKQLVIYEEISDPEEDDE | 2/75
7 | CO-94 (seb4D): serologically defined colon cancer antigen, protein SEQ ID NO:17 (protein, listed as Homo sapiens, X: residue not identified in the source) RPSLPRALPAAPHERSPARPGSVGGGAPPMLLQPAPCAPSAGFPRPLAAPGAMHLFAEGHHVHQDLRGRPAVPHYRRLAQEVLXGLRRHLRRPWSSPTAXRASPAATAS | 4/75
8 | MAGE-3: serologically defined colon cancer antigen, protein SEQ ID NO:29 (protein, listed as Homo sapiens) MPLEQRSQHCKPEEGLEARGEALGLVGAQAPATEEQEAASSSSTLVEVTLGEVPAAESPDPPQSPQGASSLPTTMNYPLWSQSYEDSSNQEEEGPSTFPDLESEFQAALSRKVAELVHFLLLKYRAREPVTKAEMLGSVVGNWQYFFPVIFSKASSSLQLVFGIELMEVDPIGHLYIFATCLGLSYDGLLGDNQIMPKAGLLIIVLAIIAREGDCAPEEKIWEELSVLEVFEGREDSILGDPKKLLTQHFVQENYLEYRQVPGSDPACYEFLWGPRALVETSYVKVLHHMVKISGGPHISYPPLHEWVLREGEE | 6/75
9 | CO-45 (Tudor like): serologically defined colon cancer antigen, protein SEQ ID NO:21 (protein, listed as Homo sapiens) RVKATLSERKIGDSCDKDLPLKFCEFPQKTIMPGFKTTVYVSHINDLSDFYVQLIEDEAEISHLSERLNSVKTRPEYYVGPPLQRGDMICAVFPEDNLWYRAVIKEQQPNDLLSVQFIDYGNVSVVHTNKIGRLDLVNAILPGLCIHCSLQGFEVPDNKNSKKMMHYFSQRTSEAAIRCEFVKFQDRWEVILADEHGIIADDMISRYALSEKSQVELSTQVIKSASSKSVNKSDIDTSVFLNWYNPEKKMIRAYATVIDGPEYFWCQFADTEKLQCLEVEVQTAGEQVADRRNCIPCPYIGDPCIVRYREDGHYYRALITNICEDYLVSVRLVDFGNIEDCVDPKALWAIPSELLSVPMQAFPCCLSGFNISEGLCSQEGNDYFYEIITEDVLEITILEIRRDVCDIPLAIVDLKSKGKSINEKMEKYSKTGIKSALPYENIDSEIKQTLGSYNLDVGLKKLSNKAVQNKIYMEQQTDELAEITEKDVNIIGTKPSNFRDPKTDNICEGFENPCKDKIDTEELEGELECHLVDKAEFDDKYLITGFNTLLPHANETKEILELNSLEVPLSPDDESKEFLELESIELQNSLVVDEEKGELSPVPPNVPLSQECVTKGAMELFTLQLPLSCEAEKQPELELPTAQLPLDDKMDPLSLGVSQKAQESMCTEDMRKSSCVESFDDQRRMSLHLHGADCDPKTQNEMNICEEEFVEYKNRDAISALMPFSLRKKAVMEASTIMVYQIIFQNYRTPTL | 4/76
10 | CO-26 (MNK 1): serologically defined colon cancer antigen, protein SEQ ID NO:27 (protein, listed as Homo sapiens) HIQKQKHFNEREASRVVRDVAAALDFLHTKGIAHRDLKPENILCESPEKVSPVKICDFDLGSGMKLNNSCTPITTPELTTPCGSAEYMAPEVVEVFTDQATFYDKRCDLWSLGVVLYIMLSGYPPFVGHCGADCGWDRGEVCRVCQNKLFESIQEGKYEFPDKDWAHISSEAKDLISKLLVRDAKQKLSAAQVLQHPWVQGQAPEKGLPTPQVLQRNSSTMDLTLFAAEAIALNRQLSQHEENELAEEPEALADGLCSMKLSPPCKSRLARRRALAQAGRGENRSPPTAL | 2/76
